# Experimental data reported in patent US20210292761, “COMPOSITIONS COMPRISING CIRCULAR POLYRIBONUCLEOTIDES AND USES THEREOF” (FLAGSHIP PIONEERING INNOVATIONS VI, LLC, published 2021).
# B1: scrambled control RNA (ssRNA)
# RNA: AAAAAAAUUCUCCGAACGUGUCACGUUUCAAGAGAACGUGACACGUUCGGAGAAAAAAAA
# Assays:
# [1] = system: NF-kB (endogenous, A549 cells) (Homo sapiens); test: cell_activity; details: A549, day 2 (89% day 1); 1 pmol transfected; indirect evidence of binding
# [2] = molecular target: T1, NF-kB p50 subunit (NFKB1) (UniProt P19838 P19838:1-433); test: EMSA; scrambled control, same buffer; details: tags: Cayman Chemical 10009818; chain copies: 2; hairpin; printed with T, is RNA
# T1 sequence (P19838 1-433, one chain of several): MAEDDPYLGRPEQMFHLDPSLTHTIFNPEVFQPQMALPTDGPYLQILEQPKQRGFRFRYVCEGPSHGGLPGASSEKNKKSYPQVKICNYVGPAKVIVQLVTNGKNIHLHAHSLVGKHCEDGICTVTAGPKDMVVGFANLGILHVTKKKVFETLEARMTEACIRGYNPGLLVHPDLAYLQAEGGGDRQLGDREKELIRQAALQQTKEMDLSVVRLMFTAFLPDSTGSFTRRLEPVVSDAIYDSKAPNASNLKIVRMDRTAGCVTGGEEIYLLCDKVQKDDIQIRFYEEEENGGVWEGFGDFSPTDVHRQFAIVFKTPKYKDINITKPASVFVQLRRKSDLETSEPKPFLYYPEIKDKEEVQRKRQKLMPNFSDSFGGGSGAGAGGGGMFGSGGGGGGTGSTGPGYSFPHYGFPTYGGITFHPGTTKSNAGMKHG
# Protocol: (§1) Electrophoretic mobility shift assay (EMSA) was performed to assess circular RNA binding affinity to NF-kB. One pmole of linear or circular RNA was incubated with recombinant NF-kB p50 subunit (Caymen Chemical, 10009818) at varying concentrations over the RNA concentration (i.e., 0, 0.1, 1, 10 pmoles of protein) for 20 minutes at room temperature in a buffered reaction (20 mM Tris-HCl, pH 8.0, 50 mM NaCl, 1 mM MgCl2). Samples were run a 6% TBE Urea gel for 25 minutes at 200V. Gels were stained with SybrGold (Thermo Scientific, S11494) and imaged with a blue E-gel imaging system (Thermo Scientific, 4466612).
# [3] = molecular target: T1, NF-kB p50 subunit (NFKB1); test: EMSA; 1 pmol RNA, 0-10 pmol p50; 20 mM Tris-HCl pH 8.0, 50 mM NaCl, 1 mM MgCl2, RT 20 min; affinity similar to linear; details: tags: Cayman Chemical 10009818; chain copies: 2; circular (ligated with RNA ligase 1), aptamer hairpin with poly(A) flanks; printed with T, is RNA
# Protocol: as §1
# [4] = molecular target: T1, NF-kB p50 subunit (NFKB1); test: EMSA; 1 pmol RNA, 0-10 pmol p50; 20 mM Tris-HCl pH 8.0, 50 mM NaCl, 1 mM MgCl2, RT 20 min; affinity similar to circular; details: tags: Cayman Chemical 10009818; chain copies: 2; linear; printed with T, is RNA
# Protocol: as §1
molecule,measurement,setting,value
AAAAAAAAAAGAUCUUGAAACUGUUUUAAGGUUGGCCGAUCUUAAAAAA [circular NF-kB aptamer RNA],activity,[1],86 % viability
B1,binding result,[2],no binding
AAAAAAAAAAGAUCUUGAAACUGUUUUAAGGUUGGCCGAUCUUAAAAAA (ssRNA) [circular NF-kB aptamer RNA],binding result,[3],binds
"AAAAAAAAAAGAUCUUGAAACUGUUUUAAGGUUGGCCGAUCUUAAAAAA (ssRNA, 5' monophosphate) [linear NF-kB aptamer RNA]",binding result,[4],binds
